In patent US20050037947A1, “INHIBITION OF DRUG BINDING TO SERUM ALBUMIN” (priority 2003, published 2005):

Molecular target: human serum albumin (Albuminar, Aventis) (human), P02768
Experiment: SPR (BIACORE 3000), serum albumin immobilised on CM5 chip, analyte injected; Req divided by molecular weight; reference GnRH-Fc

**Q.** How did the fold more bound (Req/MW) than GnRH-Fc turn out when QHWSYGLRPG (peptide, UniProt P01148 24-33, looked up, modifications not checked) [GnRH peptide (gonadotropin releasing hormone), P01148 24-33] was run?
**A.** The fold more bound (Req/MW) than GnRH-Fc was greater than 5 times.
